Consider one substance from US9926369B2, “Methods for treating hepatocellular cancer by administering an anti-Ang-2 antibody” (Regeneron Pharmaceuticals, Inc., priority 2009, dated 2018).

Assay [1] addresses T1, hAng-1-WT binding to hTie-2-mFc (Homo sapiens, UniProt Q15389).
T1 sequence (Q15389 20-498 limits assumed): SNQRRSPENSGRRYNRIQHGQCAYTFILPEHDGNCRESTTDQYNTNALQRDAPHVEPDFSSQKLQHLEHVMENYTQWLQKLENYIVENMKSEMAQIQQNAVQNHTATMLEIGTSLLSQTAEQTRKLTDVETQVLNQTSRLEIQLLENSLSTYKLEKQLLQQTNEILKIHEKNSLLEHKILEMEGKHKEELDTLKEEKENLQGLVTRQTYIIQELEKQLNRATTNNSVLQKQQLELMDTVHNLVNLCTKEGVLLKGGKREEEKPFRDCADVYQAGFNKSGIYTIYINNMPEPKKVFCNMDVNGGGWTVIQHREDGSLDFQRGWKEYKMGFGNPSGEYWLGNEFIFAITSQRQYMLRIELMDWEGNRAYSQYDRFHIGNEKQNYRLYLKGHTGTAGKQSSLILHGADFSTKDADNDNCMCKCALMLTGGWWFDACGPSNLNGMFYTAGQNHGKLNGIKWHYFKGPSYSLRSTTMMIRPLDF
Briefly: Biosensor SPR blocking of hAng-1-WT binding to hTie-2-mFc-ecto surface. Type of assay: biochemical. Particulars: for Percent of Neg. Ctrl Binding (hAng-1 WT) / Specific Bound RU (hAng-1 WT): 10 nM hAng-1-WT. On the procedure:
In an effort to further assess the ability of selected anti-hAng-2 antibodies to block the binding of Ang-1 to Tie-2, a biosensor surface plasmon resonance experiment was conducted. In this experiment, a human Tie-2 full-length extracellular domain construct (hTie-2-mFc-ecto) was amine-coupled on a BIACORE™ chip to create a receptor coated surface. Selected anti-hAng-2 antibodies and control constructs, at 1 μM (100-fold excess over antigen), were premixed with 10 nM of hAng-1-WT, followed by 60 minutes incubation at 25° C. to allow antibody-antigen binding to reach equilibrium to form equilibrated solutions. The equilibrated solutions were injected over the receptor surfaces at 5 μL/min for 5 minutes at 25° C. Changes in resonance units (RU) due to the binding of the hAng-1-WT to hTie-2-mFc were determined. An irrelevant peptibody construct with no binding to hAng-1 was included in this experiment to establish the 0% blocking baseline, and a human Tie-2-mFc construct was used as a positive control for blocking. The amount of Ang-1 bound to Tie-2 following antibody preincubation, expressed as a percentage of the amount of Ang-1 bound to Tie-2 following negative control preincubation, is shown in Table 20. (A greater amount of Ang-1 binding to Tie-2 signifies a lower degree of antibody blocking).
The foregoing experiment was repeated using different amounts of Ang-2 blockers and controls. In particular, a human Tie-2 full-length extracellular domain construct (hTie-2-mFc-ecto) was amine-coupled on a BIACORE™ chip to create a receptor-coated surface. Selected anti-hAng-2 antibodies and control constructs (50 or 150 nM) were mixed with hAng-2-WT (25 nM) followed by 60 minutes incubation at 25° C. to allow antibody-antigen binding to reach equilibrium. The equilibrated solutions were injected over the receptor surfaces at 10 μL/min for 5 minutes at 25° C. To evaluate the ability of the selected anti-hAng-2 antibodies to block Ang-1-WT binding to hTie-2, a similar procedure was followed except the antibodies were tested at three concentrations (50, 100 or 1000 nM) and incubated with 10 nM of hAng-1-WT. Changes in resonance units (RU) due to the binding of the Ang-2-WT or hAng-1-WT to hTie-2-mFc were determined. An irrelevant antibody with no binding to either angiopoietin was included in these experiments to establish the 0% blocking baseline, and a human Tie-2-mFc construct was used as a positive control for blocking. Results are summarized in Tables 21 (hAng-1 applied to a hTie-2 surface) and 22 (hAng-2 applied to a hTie-2 surface).

Assay [2] deals with T2, Monomeric hAng-2FD (Homo sapiens, UniProt O15123).
T2 sequence (O15123 282-496 limits assumed): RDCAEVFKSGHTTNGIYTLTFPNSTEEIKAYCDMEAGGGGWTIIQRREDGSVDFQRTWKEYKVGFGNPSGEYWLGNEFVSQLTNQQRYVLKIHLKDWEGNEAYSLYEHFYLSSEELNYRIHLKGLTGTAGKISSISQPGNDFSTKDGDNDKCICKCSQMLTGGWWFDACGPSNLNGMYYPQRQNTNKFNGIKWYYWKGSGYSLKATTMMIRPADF
The assay can be described thus: SPR binding to monomeric hAng-2FD (Table 8). As for the experimental part: Equilibrium dissociation constants (KD values) for the binding of selected purified Ang-2 antibodies to dimeric fibrinogen-like domain of human (SEQ ID NO: 519), mouse (Mus musculus; SEQ ID NO: 520) and monkey (Macca fascicularis; SEQ ID NO: 521) Ang-2 (Ang-2FD) conjugated to human IgG1 (SEQ ID NO:528) were determined by surface kinetics using a real-time biosensor surface plasmon resonance assay. Antibody was captured on a goat anti-mouse IgG polyclonal antibody surface, a goat anti-human κ polyclonal antibody (Southern Biotech, Birmingham, Ala.) surface or a goat anti-human IgG polyclonal antibody (Jackson Immuno Research Lab, West Grove, Pa.) surface created through direct amine coupling to a BIACORE™ CM5 sensor chip to form a captured antibody surface. Varying concentrations (ranging from 50 nM to 6.25 nM) of protein were injected at 100 μl/min over captured antibody surface for 90 seconds. Antigen-antibody binding and dissociation were monitored in real time at room temperature. Kinetic analysis was performed to calculate KD and half-life of antigen/antibody complex dissociation.
In yet another experiment, KD values for selected purified antibodies that bind to wild-type human Ang-2 (hAng-2-WT; SEQ ID NO: 518) and the fibrinogen-like domain of human Ang2 (hAng-2FD) were determined (as described above).

Assay [3] concerns the target Dimeric Human Ang-2FD-mFc (Homo sapiens, UniProt O15123). The assay can be described thus: Cross-species SPR binding at 25° C. or 37° C., human Ang-2FD-mFc. On the procedure: Additional binding experiments were conducted using selected anti-Ang-2 antibodies at two different temperatures to further assess cross-species affinity. Each selected antibody or control construct was captured at a flow rate of 40 μL/min for 1 minute on a goat anti-human kappa polyclonal antibody surface created through direct chemical coupling to a BIACORE™ chip to form a captured antibody surface. Human, monkey and mouse Ang-2FD-Fc at a concentration of 25 nM or 0.78 nM was injected over the captured antibody surface at a flowrate of 60 μL/min for 3 minutes, and antigen-antibody dissociation was monitored in real time for 20 minutes at either 25° C. or 37° C.
For orientation: SPR reads the build-up and loss of mass on a sensor chip optically.

[4] abbreviates: 1 μM antibody premixed with 10 nM hAng-1-WT, 25° C.

Chain of Dimeric Human Ang-2FD-mFc (O15123 with tags, fused parts or gaps): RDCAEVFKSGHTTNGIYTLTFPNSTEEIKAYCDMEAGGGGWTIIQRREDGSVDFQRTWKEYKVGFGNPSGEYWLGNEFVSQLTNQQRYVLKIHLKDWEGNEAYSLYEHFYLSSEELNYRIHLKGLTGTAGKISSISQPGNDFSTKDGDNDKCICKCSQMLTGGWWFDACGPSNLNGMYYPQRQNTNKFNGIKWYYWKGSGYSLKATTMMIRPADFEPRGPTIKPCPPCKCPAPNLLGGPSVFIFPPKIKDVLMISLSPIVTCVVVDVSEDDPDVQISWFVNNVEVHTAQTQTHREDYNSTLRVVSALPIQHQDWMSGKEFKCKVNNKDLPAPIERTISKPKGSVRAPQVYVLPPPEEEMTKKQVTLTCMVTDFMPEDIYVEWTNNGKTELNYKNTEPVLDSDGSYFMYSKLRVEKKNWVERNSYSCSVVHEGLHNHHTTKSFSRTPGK

With “H1H685P: human anti-Ang-2 antibody, HCVR/LCVR SEQ ID NOs 18/20; also referred to as mAb1 [Antibody H1H685P]”, the “Blocking of binding of human Ang-1 to human Tie-2 (in words)” value in assay [1] is “do not significantly block”. Moreover, the “Percent of Neg. Ctrl Binding (hAng-1 WT)” value was 95% in assay [1] (50 nM antibody or control), 95% in assay [1] (100 nM antibody or control) and 105% in assay [1] (1000 nM antibody or control). Also, the “Specific Bound RU (hAng-1 WT)” value in assay [1] (50 nM antibody or control) stood at 299 RU; in assay [1] (100 nM antibody or control), 291 RU; in assay [1] (1000 nM antibody or control) it was 289 RU. Besides, the “Percent of Negative Control Binding (hAng-1-WT to Tie-2)” value in assay [1] (setting [4]) came out at 81%. Further, in assay [1] (setting [4]), the “RU (average), hAng-1-WT bound to hTie-2-mFc” value is listed as 137 RU. In addition, the Kd (commonly a measure of binding affinity in units of concentration) in assay [2] amounted to 578 pM; in assay [3] (25° C.), 11.7 pM; in assay [3] (37° C.), 27 pM.
